Test [1] has as its target BG505 SOSIP.v4.1 GT1.1 trimer (BG505 SOSIP germline trimer 1.1) (HIV-1 (isolate BG505)) (UniProt Q2N0S6). In words: cryo-EM structure.
The target of test [2] is BG505 SOSIP.v4.1-GT1.1 (HIV-1 (isolate BG505)) (UniProt Q2N0S6). In words: cryo-EM structure.

B1: 21N13 Fab (Fab, V domains shown)
VH: QVQLQESGPGRVKPSETLSLTCAVSDDSFGSSYFYWSWIRQAPGKGLEWIGYIAYSGGVRYNPSLSSRVTISRNIHERQFYLRLTSMTAADTAVYYCARHCEDDYGYYSAAQSYGLDSWGQGIAVTVSP
VL: DIQMTQSPSSLSASVGDRVTITCRTSENVNNCLNWYQQKPGKAPKLLIYRTSTLQRGVPSRFSGTGSGTDYTLTISSLQSEDFGTYYCQHYYGTPLTFGGGTMVDIK
Turning to B1, the stoichiometry N in test [1] is 3.

B2: 21M20 Fab (Fab, V domains shown)
VH: EVQLVESGGGLAKPGGSLRLSCAASGFTFSRSIMHWVRQAPGKGLEWVSTINYAGSTYYADSVRGRFVISRDNSKNTLSLQMNSVRPEDRAVYHCAKDKEGYYSGGYPLWYFDLWGPGTPVTISS
VL: DVQMTQSPSSLSASVGDKVSITCRASQGIADALAWYQQKPGKAPKLLIYGASNLESGVPSRFSGSGSGTDFSLTISSLQAEDFAVYYCQQRNSHPPTFGQGTRVEVK
As to B2, the stoichiometry N (Ab:Env trimer) in test [2] was determined as 1.

The values above are taken from publication PMC11783328.
